Assay results: patent US6518412B1, “Gene therapy approaches to supply apolipoprotein A-I agonists and their use to treat dyslipidemic disorders” (priority 1997, dated 2003)

Key:
Format in all cases: physicochemical
[1] = Circular dichroism, degree of helicity (free, SUVs, micelles, TFE)
Procedure: Far UV circular dichroism spectra were recorded between 190 and 260 nm (in 0.5 nm or 0.2 nm increments) with a AVIV62DS spectrometer (AVIV Associates, Lakewood, N.J., USA) equipped with a thermoelectric cell holder and sample changer. The instrument was calibrated with (+)-10-[…]. Between one and three scans were collected for each sample, using 10 cm, 5 cm, 1 cm and 0.1 cm path length quartz Suprasil cells, respectively, for peptide concentrations of 10^−7 M to 10^−4 M. The bandwidth was fixed at 1.5 nm and the scan speed to is per wavelength step. The reported data are the mean of at least 2 or 3 independent measurements.
After background substraction, spectra were converted to molar ellipticity (θ) per residue in deg. […] dmol^−1. The peptide concentration was determined by amino acid analysis and also by absorption spectrometry on a Perkin Elmer Lambda 17 UV/Visible spectrophotometer when the peptide contained a chromophore (tryptophane, dansyl, naphtylalanine). […]
All spectra were recorded at 37° C. The stability of peptide 210 (SEQ ID NO:210) as a function of temperature (both free in buffer and in micelles) was determined by recording spectra at a series of different temperatures.
The degree of helicity of peptide 210 (SEQ ID NO:210) as a function of concentration was also determined.
The degree of helicity of the peptides in the various conditions was determined from the mean residue ellipticity at 222 nm (Chen et al., 1974, Biochemistry 13:3350-3359) or by comparing the CD spectra obtained to reference spectra available on databases (16 helical reference spectra from Provencher & Glockner, 1981, Biochemistry 20:33-37; denatured protein reference spectra from Venyaminov et al., 1993, Anal. Biochem. 214:17-24) using the CONTIN curve-fitting algorithm version 2DP, CD-1 pack (August 1982) (Provencher, 1982, Comput. Phys. Commun. 27:213-227, 229-242). Acceptable fit was determined using the statistical analysis methodology provided by the CONTIN algorithm. […]

[2] = NMR analysis of peptide structure; conditions: 25% TFE at 295 K
Procedure: Samples were prepared by dissolving 5 mg of peptide in 90% H2O/10% D2O containing trace amounts of 2,2-Dimethyl-2-sila-5-pentane sulfonate (DSS) as an internal chemical shift reference. Some of the samples contained trifluoroethanol (TFE) (expressed as % vol). The total sample volume was 500 μl and the concentration of peptide was approximately 5 mM.
^1H NMR spectra were acquired at 500 MHz using a Bruker DRX500 spectrometer equipped with a B-VT2000 temperature control unit. One and two-dimensional experiments were recorded using standard pulse sequences. (Two Dimensional NMR Spectroscopy, Eds. W. R. Croasmun and RMK Carlson, 1994, VCH Publishers, New York, USA). […] Two-dimensional experiments were carried out in the phase sensitive mode using time proportional phase incrementation (TPPI) and a spectral width of 6000 Hz in both dimensions. Typically, 40 scans were co-added for 400 t1 increments with 2048 data points. […]
Complete proton resonance assignments were obtained by applying the sequential assignment technique using DQFCOSY, TOCSY and NOESY spectra as described in the literature (Wuthrich, NMR of Proteins and Nucleic Acids, 1986, John Wiley & Sons, New York, USA). Secondary chemical shifts were calculated for HN and Ha protons by subtracting the tabulated random coil chemical shifts (Wishart and Sykes, 1994, Method. Enz. 239:363-392) from the corresponding experimental values.

[3] = Superose 6 gel filtration chromatography of peptide-lipid complexes; conditions: 1 mg peptide and 3 mgs DPPC, colyophilized, 0.9% NaCl
Procedure: One mg of peptide 149 ([…]; SEQ ID NO:149) was dissolved in 250 μl HPLC grade methanol (Perkin Elmer) in a one ml clear glass vial with cap (Waters #WAT025054). Dissolving of the peptide was aided by occasional vortexing over a period of 10 minutes at room temperature. To this mixture an aliquot containing 3 mg dipalmitoyl-phosphatidyl-choline (DPPC; Avanti Polar Lipids, 99% Purity, product #850355) from a 100 mg/ml stock solution in methanol was added. The volume of the mixture was brought to 400 μl by addition of methanol, and the mixture was further vortexed intermittently for a period of 10 minutes at room temperature. To the tube 200 μl of xylene (Sigma-Aldrich 99% pure, HPLC-grade) was added and the tubes were vortexed for 10 seconds. […]
Peptide-phospholipid complexes containing peptide 149 (SEQ ID NO:149) were prepared by colyophilization as described above. […] The chromatography was monitored by absorbance or scattering of light of wavelength 280 nm. […] The vast majority of both phospholipid and UV absorbance were recovered together in a few fractions with peaks at approximately 15.8 mls. […]
For comparison, a separate chromatogram of 20 μl of human HDL2 was run under the same conditions and using the same column as the peptide 149 complexes. […] The column eluate was monitored by absorbance or scattering of light of wavelength 254 nm. […]

PVLDLFRELLEELKQKLK [peptide 210]
stability of α-helical structure with temperature [1]: completely stable
helicity in the presence of TFE ([1]; TFE): increases
helicity ([1]; in micelles): 63%
conformation from Hα secondary shifts [2]: highly helical conformation

PVLELFENLWERLLDALQKKLK [peptide 149]
Stokes' diameter [3]: 87 Angstroms
